From US20060057104A1, “Methods for stimulating tlr irf3 pathways for inducing anti-microbial, anti-inflammatory and anticancer responses” (THE Regents of the University of California Office of the …, priority 2002, published 2006)

B1: recombinant IFN-β: murine rIFN-β (R&D Systems) (protein, UniProt P01575 22-182, looked up)
Interferon beta: INYKQLQLQERTNIRKCQELLEQLNGKINLTYRADFKIPMEMTEKMQKSYTAFAIQEMLQNVFLVFRNNFSSTGWNETIVVRLLDELHQQTVFLKTVLEEKQEERLTWEMSSTALHLKSYYWRVQRYLKLMKYNSYAWMVVRAEIFRNFLIIRRLTRNFQN
B2: CD40L (protein, UniProt P29965 113-261, looked up)
CD40 ligand, soluble form: MQKGDQNPQIAAHVISEASSKTTSVLQWAEKGYYTMSNNLVTLENGKQLTVKRQGLYYIYAQVTFCSNREASSQAPFIASLCLKSPGRFERILLRAANTHSSAKPCGQQSIHLGGVFELQPGASVFVNVTDPSQVSHGTGFTSFGLLKL

How the values were obtained:
[1] = system: BMMs; assay: Quantitative real-time PCR gene expression in BMMs, wild-type and IFNAR deficient (Example 2); format: cell-based, murine; details: rIFN-β 10, 100, 1000 units
Experimental: Murine BMMs were stimulated with poly(I:C) (10 μg/ml) or lipid A (1 ng/ml) for the indicated times. Total RiNA was isolated and converted to cDNA for quantitative real-time PCR analysis using primers specific for IFN-β, IFI-204, IP10, IκBα, or L32. Experiments were repeated three times, and the data are presented in relative expression units on a log scale, as described in Example 2, infra.
Primary macrophage cells derived from bone marrow cells were stimulated with poly I:C (1 μg/ml) or lipid A (1 ng/ml) for the indicated times, as described in Example 2, infra.
(B) TLR3 and TLR4 mRNA levels were also assessed in cells deficient in IFNAR, and cells stimulated with rIFN-β (10, 100, and 1000 U). Experiments were repeated at least two separate times, and data are presented in relative expression units. L32 was used to normalize all samples.
Both wild-type cells and cells deficient in IFNAR were stimulated with poly I:C (1 μg/ml) or lipid A (1 ng/ml) for either 1 or 4 h. IFN-β, IP10, IFI-204, ICAM1, and L32 mRNA levels were assessed. Data are representative of three independent experiments and presented in relative expression units, as described in Example 2, infra.
Murine bone marrow-derived macrophages (BMMs) were differentiated from marrow as previously described (Doyle, S. E., S. A. Vaidya, R. O'Connell, H. Dadgostar, P. W. Dempsey, T.-T. Wu, G. Rao, R. Sun, M. E. Haberland, R. L. Modlin, and G. Cheng. 2002. IRF3 mediates a TLR3/TLR4-specific antiviral gene program. Immunity 17:251). A129 (IFNAR-1^−/−) (Muller, U., U. Steinhoff, L. F. L. Reis, S. Hemmi, J. Pavlovic, R. M. Zinkernagel, and M. Aguet. 1994. Functional role of type I and type II interferons in antiviral defense. Science 264:1918) and B6129SF2/J wild type control mice were obtained from B&K Universal Ltd. and Jackson Laboratories, respectively. C57/B6 mice were used for all experiments not involving the A129 mice (Jackson Laboratories). Specific TLR activation was achieved using F-583 (Rd mutant) E. coli lipid A for TLR4 (Sigma), CpG oligonucleotides for TLR9 (Invitrogen) and poly I:C for TLR3 (Pharmacia). For experiments employing the TIRAP/MAL inhibitory peptide (CN Biosciences), cells were pretreated for 1 hour with 20 μM peptide or DMSO alone. Cells were then stimulated with PAMPs in the presence of the inhibitory peptide. For experiments using murine rIFN-β (R&D Systems), wild-type macrophage cells were stimulated with 10, 100, or 1000 units. Viral infection and harvest was performed using MHV68 at an M.O.I. of 5 as previously described (Doyle, S. E., S. A. Vaidya, R. O'Connell, H. Dadgostar, P. W. Dempsey, T.-T. Wu, G. Rao, R. Sun, M. E. Haberland, R. L. Modlin, and G. Cheng. 2002. IRF3 mediates a TLR3/TLR4-specific antiviral gene program. Immunity 17:251).
RNA was isolated by standard guanidium isothiocyanate methods. cDNA template for quantitative realtime PCR analysis was then synthesized and PCR was performed using the iCycler thermocycler (Bio-Rad) as previously described (Doyle, S. E., S. A. Vaidya, R. O'Connell, H. Dadgostar, P. W. Dempsey, T.-T. Wu, G. Rao, R. Sun, M. E. Haberland, R. L. Modlin, and G. Cheng. 2002. IRF3 mediates a TLR3/TLR4-specific antiviral gene program. Immunity 17:251). IFN-βIP10, IκBα and IFI-204 primers were the same as those previously described (Doyle, S. E., S. A. Vaidya, R. O'Connell, H. Dadgostar, P. W. Dempsey, T.-T. Wu, G. Rao, R. Sun, M. E. Haberland, R. L. Modlin, and G. Cheng. 2002. IRF3 mediates a TLR3/TLR4-specific antiviral gene program. Immunity 17:251). For other genes, the following primers were used: […]

[2] = system: Primary murine B cells; assay: Microarray analysis of primary murine B cells stimulated with LPS or CD40L; format: cell-based; details: LPS 20 μg/mL, soluble CD8/CD40L chimera 300 ng/mL
Experimental: (A) Primary murine B cells were stimulated with LPS (20 μg/mL) or a soluble CD8/CD40L chimera (300 ng/mL) and RNA was collected at indicated time points and used to conduct microarray analysis. […] Expression changes: Red—Induced, Green—Repressed, Black—No Change. Selected time points were hybridized to microarrays in duplicate to ensure reproducibility.
B cell isolation, target preparation, and hybridization using Affymetrix Mu6500 microarrays were performed as described previously (Dadgostar, H., Zarnegar, B., Hoffman, A., Qin, X.-F., Truong, U., Rao, G., Baltimore, D., and Cheng, G. (2002), Proc. Natl. Acad. Sci. USA 99, 1497-1502). Differential expression data was analyzed by Affymetrix Microarray Suite 4.0 software. Average difference change values were then normalized and the genes were clustered by the uncentered correlation average linkage hierarchical clustering algorithm using Cluster. Data was then visualized as a dendogram using Treeview software (www.rana.Ibl.gov/EisenSoftware.htm).
We have conducted a series of microarray experiments to determine gene expression patterns in murine B cells in response to activating stimuli such as LPS and CD40L. […] Genes were hierarchically clustered using average difference change values derived by comparing control samples (media 4h) with samples from cells treated with indicated stimulus.

Molecule	TLR4 mRNA levels ([1]; wild type cells)	TLR3 mRNA ([1]; wild-type primary macrophages)	upregulation of genes previously characterized as interferon-responsive [2]
B1	relatively unaltered	dose dependent upregulation	–
B2	–	–	not
